# According to US20120077731A1 (Ablynx, published 2012):
# “And” between values parts separate entries of the source, which are not always exact repeats. Equal entries are not always repeated.
# T1: Human membrane IL-6R on cells (human, UniProt P08887 20-468)
# T1 sequence (looked up): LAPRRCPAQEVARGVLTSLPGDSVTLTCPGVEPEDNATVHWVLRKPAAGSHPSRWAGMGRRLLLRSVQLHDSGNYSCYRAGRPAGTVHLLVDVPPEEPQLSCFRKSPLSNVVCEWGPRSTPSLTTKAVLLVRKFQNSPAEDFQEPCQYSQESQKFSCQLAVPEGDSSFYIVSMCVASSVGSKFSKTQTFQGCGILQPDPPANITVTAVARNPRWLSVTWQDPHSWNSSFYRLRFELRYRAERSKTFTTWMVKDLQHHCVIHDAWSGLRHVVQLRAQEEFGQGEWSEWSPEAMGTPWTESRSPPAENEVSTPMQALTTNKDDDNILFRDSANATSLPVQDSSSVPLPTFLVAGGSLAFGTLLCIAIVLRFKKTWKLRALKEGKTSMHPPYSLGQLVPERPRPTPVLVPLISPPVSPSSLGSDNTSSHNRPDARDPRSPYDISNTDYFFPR
# T2: Human soluble IL-6R (human, UniProt P08887 20-358)
# T2 construct: Soluble recombinant form; biotinylated in some assays; also called hIL-6R; human IL-6R
# T2 sequence (looked up): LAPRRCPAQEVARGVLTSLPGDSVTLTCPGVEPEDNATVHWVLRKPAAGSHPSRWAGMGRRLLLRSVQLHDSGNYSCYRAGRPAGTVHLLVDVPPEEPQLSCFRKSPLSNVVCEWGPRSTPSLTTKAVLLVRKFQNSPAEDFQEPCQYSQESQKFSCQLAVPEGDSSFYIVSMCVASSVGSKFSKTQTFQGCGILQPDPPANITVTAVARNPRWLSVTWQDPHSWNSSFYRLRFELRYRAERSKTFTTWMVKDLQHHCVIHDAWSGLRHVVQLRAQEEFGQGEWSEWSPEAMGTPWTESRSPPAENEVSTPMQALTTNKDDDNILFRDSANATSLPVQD
# T3: Mouse IL-6R (mouse, UniProt P22272 20-364, limits assumed)
# T3 construct: also called mouse sIL-6R
# T3 sequence (looked up): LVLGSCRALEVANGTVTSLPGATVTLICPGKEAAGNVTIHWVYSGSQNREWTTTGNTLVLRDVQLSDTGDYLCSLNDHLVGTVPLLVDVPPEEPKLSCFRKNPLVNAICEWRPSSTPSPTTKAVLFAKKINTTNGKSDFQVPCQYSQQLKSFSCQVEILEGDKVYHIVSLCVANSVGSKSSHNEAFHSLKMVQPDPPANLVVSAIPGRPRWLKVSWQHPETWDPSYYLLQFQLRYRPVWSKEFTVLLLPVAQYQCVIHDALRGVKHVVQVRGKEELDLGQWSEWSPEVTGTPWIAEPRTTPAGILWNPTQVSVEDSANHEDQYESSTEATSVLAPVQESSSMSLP
# Columns and labels:
# [1] = target: T1, Human membrane IL-6R on cells; assay: cell-based or functional assay
# [2] = target: T1, Human membrane IL-6R on cells; assay: cell-based or functional assay; remark: listed apart in the source
# [3] = target: T1, Human membrane IL-6R on cells; assay: cell-based or functional assay; remark: listed apart in the source
# Human soluble IL-6R [4] = target: T2, Human soluble IL-6R; assay: Biacore off-rate, periplasmic extract
# Human soluble IL-6R [5] = target: T2, Human soluble IL-6R; assay: SPR Biacore 3000, IL-6R amine-coupled to CM5
# Experimental: (§1) Nanobodies were injected at 5 different concentrations between 1 and 50 nM. Flow rate was 45 μl/min in all experiments. Association and dissociation phase were 3 and 10 min, respectively. The chip was regenerated using Glycine/HCl pH 1.5.
# Human soluble IL-6R [6] = target: T2, Human soluble IL-6R; assay: Alphascreen, inhibition of bio-IL-6 binding to IL-6R
# Experimental: (§2) Finally streptavidin donor beads were added and after 1 hour incubator the plate was read on the Envision microplate reader.
# Human soluble IL-6R [7] = target: T2, Human soluble IL-6R; assay: summary table C-13 of Nanobody characteristics, Kd on IL-6R
# Experimental: as §1
# Human soluble IL-6R [8] = target: T2, Human soluble IL-6R; assay: inhibition of the IL-6/IL-6R interaction, summary table C-13
# Experimental: as §2
# Human soluble IL-6R [9] = target: T2, Human soluble IL-6R; assay: competition for IL-6R, competitor reference Fab, summary table C-13
# Human soluble IL-6R [10] = target: T2, Human soluble IL-6R; assay: Alphascreen, 100 nM Nanobody, 0.4 nM bio-IL-6R; competitor: reference Fab
# Mouse IL-6R = target: T3, Mouse IL-6R; assay: ELISA: plate coated with 1 µg/ml mouse IL-6R, 500 nM Nanobody, anti-myc + anti-mouse-HRP
# Experimental: Detection was performed with anti-myc and anti-mouse-HRP as first and second antibody respectively.
# Human soluble IL-6R [11] = target: T2, Human soluble IL-6R; assay: Biacore off-rate, periplasmic extracts
Binder,"IC50 (nM), XG-1 cell proliferation [1] [nM]","IC50 (nM), TF1 cell proliferation [2] [nM]",IC50 (nM) XG-1 [3] [nM],koff (Human soluble IL-6R [4]) [s⁻¹],Kd (Human soluble IL-6R [5]),koff (Human soluble IL-6R [5]),kon (Human soluble IL-6R [5]),IC50 (Human soluble IL-6R [6]) [nM],Kd (Human soluble IL-6R [7]) [nM],IC50 (Human soluble IL-6R [8]) [nM],Ref Fab competition (%) (Human soluble IL-6R [9]),Residual reference-Fab binding to IL-6R (%) (Human soluble IL-6R [10]),binding result (Mouse IL-6R),"IC50 (nM) + HSA, XG-1 cell proliferation [1] [nM]",koff (Human soluble IL-6R [11]) [s⁻¹]
"IL6R05 (VHH, also called PMP32E10; not shown: C-terminal c-myc and (His)6 tags) VHH: EVQLVESGGGLVQPGGSLRLSCAASGFTFGSYDMSWVRQAPGKGPEWVSAINSGGGSTYYADSVKGRFTISRDNAKNTLYLQMNSLKPEDTAVYYCATDWRYSDYDLPLPPPGDYWGQGTQVTVSS",7.3,38,7.3,0.00127,9.8 nM,0.00141 s⁻¹ and 0.00127 s⁻¹,144000 M⁻¹ s⁻¹,0.626,9.8,0.63,64,64,no binding (tested: 500 nM),–,–
"IL6R09 (VHH, also called PMP34G9; not shown: C-terminal c-myc and (His)6 tags) VHH: EVQLVESGGGLVQAGGSLRLSCAASGRTSSSYDMTWYRQVPGKEREFVAVISWSGGSTYYADSVKGRFTISRDNAKNTVYLQMNSLKPEDTAIYYCNAYTGGGDDYWGQGTQVTVSS",2.7,8.7,2.7,0.00139,2 nM and 1.2 nM,0.00129 s⁻¹ and 0.0013 s⁻¹ and 0.00139 s⁻¹,641000 M⁻¹ s⁻¹ and 1.11e+06 M⁻¹ s⁻¹,0.238,2,0.24,62,62,no binding (tested: 500 nM),3,–
"IL6R07 (VHH, also called PMP33A3; not shown: C-terminal c-myc and (His)6 tags) VHH: EVQLVESGGGLVQPGGSLRLSCAASGFTLDYGAIGWFRQAPGKEREGVSCISSSTGSTYYADSVKGRFTISRDNGKNTVYLQMNSLKPEDTAVYYCAADKMWSPCLVAANEEALFEYDYWGQGTQVTVSS",50.5,375,50.5,0.000242,–,0.000242 s⁻¹,–,1.44,–,1.44,80,80,no binding (tested: 500 nM),–,–
"IL6R10 (VHH, also called PMP35C10; not shown: C-terminal c-myc and (His)6 tags) VHH: EVQLVESGGGLVQAGGSLRLSCAASGRTFSSYDMGWYRQAPGKEREFVAVIHWSSGSTYYADPVKGRFTISRDNAKNTVYLQMNSLKPEDTAIYYCNAFLPGPEGFHDYWGQGTQVTVSS",2.5,9.9,2.5,0.000509,1.3 nM,0.000526 s⁻¹ and 0.000509 s⁻¹,414000 M⁻¹ s⁻¹,0.596,1.3,0.6,102,102,no binding (tested: 500 nM),–,–
"IL6R08 (VHH, also called PMP34A12; not shown: C-terminal c-myc and (His)6 tags) VHH: EVQLVESGGGLVQPGGSLRLSCVASGFSLDYYVIGWFRQAPGKEREGVSCISSSDGSTYYADSVKGRFTISRDNAKNTVYLQMNSLKPEDTAVYYCAADLLRTPEFCVDSAPYDYWGQGTQVTVSS",36.6,24.3,36.6,–,10.2 nM,0.00197 s⁻¹,194000 M⁻¹ s⁻¹,1.18,10.2,1.18,99,99,no binding (tested: 500 nM),–,–

# Other lines, results leading:
"IC50 (nM), XG-1 cell proliferation [1] [nM]","IC50 (nM), TF1 cell proliferation [2] [nM]",IC50 (nM) XG-1 [3] [nM],koff (Human soluble IL-6R [4]) [s⁻¹],Kd (Human soluble IL-6R [5]),koff (Human soluble IL-6R [5]),kon (Human soluble IL-6R [5]),IC50 (Human soluble IL-6R [6]) [nM],Kd (Human soluble IL-6R [7]) [nM],IC50 (Human soluble IL-6R [8]) [nM],Ref Fab competition (%) (Human soluble IL-6R [9]),Residual reference-Fab binding to IL-6R (%) (Human soluble IL-6R [10]),binding result (Mouse IL-6R),"IC50 (nM) + HSA, XG-1 cell proliferation [1] [nM]",koff (Human soluble IL-6R [11]) [s⁻¹],Binder
2.8,6.8,2.8,0.000896,1.7 nM,0.00116 s⁻¹ and 0.000896 s⁻¹,678000 M⁻¹ s⁻¹,0.517,1.7,0.52,103,103,no binding (tested: 500 nM),–,–,"IL6R12 (VHH, also called PMP35F4; not shown: C-terminal c-myc and (His)6 tags) VHH: EVQLVESGGGLVQAGGSLRLSCAASGRTFSSYDMGWYRQAPGKEREFVAIITWNSSTYYADSVKGRFTISRDNAKNTVYLQMNSLKPEDTAIYYCNAQYGLGYAEDYWGQGTQVTVSS"
5.4,9.9,5.4,0.000417,0.9 nM and 1.9 nM,0.00034 s⁻¹ and 0.000396 s⁻¹ and 0.000417 s⁻¹,391000 M⁻¹ s⁻¹ and 215000 M⁻¹ s⁻¹,0.158,0.9,0.16,40,40,no binding (tested: 500 nM),–,–,"IL6R11 (VHH, also called PMP35E11; not shown: C-terminal c-myc and (His)6 tags) VHH: EVQLVESGGGLVQAGGSLRLSCAASGFTFDDYAIGWFRQAPGKEHEGVSCISSSDGSTYYADSVKGRFTISSDNAKNTVYLQMNSLKPEDTAVYYCAAERDVPARSLCGSYYWYDYRGQGTQVTVSS"
0.6,1.5,0.6,0.000114,0.3 nM,0.0001 s⁻¹ and 0.000114 s⁻¹,402000 M⁻¹ s⁻¹,0.222,0.3,0.22,96,96,no binding (tested: 500 nM),0.8,–,"IL6R14 (VHH, also called PMP40H5; not shown: C-terminal c-myc and (His)6 tags) VHH: EVQLVESGGGLVQPGGSLRLSCAASGFSLDYYAIGWFRQAPGKEREGVSCMDSSSGTTSTYYSDSVKGRFTISRDDAKNTVYLQMNSLKPEDTAVYYCAADGHLNWGQRYVPCSQISWRGWNDYWGQGTQVTVSS"
–,–,–,–,–,–,–,–,–,–,–,–,–,–,0.0021,"IL6R85 (VHH, IL6R13 variant, tested as periplasmic extract) VHH: EVQLVESGGGLVQPGGSLRLSCAASGFTFDDYGMSWVRQAPGRGLEWVSAISWNGNNTYYTESMKGRFTISRDNAKNTLYLQMNSLRPEDTAVYYCVKGSTAIVGVPPTYPDEYDYWGQGTLVTVSS"
–,–,–,–,–,–,–,–,–,–,–,–,–,–,0.00011,"IL6R87 (VHH, IL6R13 variant, tested as periplasmic extract) VHH: EVQLVESGGGLVQPGGSLRLSCAASGFTFDDYGMSWVRQAPGKATEWVSAISWNGNNTYYTESMKGRFTISRDNAKNTLYLQMNSLRPEDTAVYYCVKGSTAIVGVPPTYPDEYDYWGQGTLVTVSS"
–,–,–,–,–,–,–,–,–,–,–,–,–,–,0.0017,"IL6R86 (VHH, IL6R13 variant, tested as periplasmic extract) VHH: EVQLVESGGGLVQPGGSLRLSCAASGFTFDDYGMSWVRQAPGRALEWVSAISWNGNNTYYTESMKGRFTISRDNAKNTLYLQMNSLRPEDTAVYYCVKGSTAIVGVPPTYPDEYDYWGQGTLVTVSS"
–,–,–,–,–,–,–,–,–,–,–,–,–,–,0.0019,"IL6R90 (VHH, IL6R13 variant, tested as periplasmic extract) VHH: EVQLVESGGGLVQPGGSLRLSCAASGFTFDDYGMSWVRQAPGKALEWVSAISWNGNNTYYTESMKGRFTISRDNAKNTLYLQMNSLRPEDTAVYYCVKGSTAIVGVPPTYPDEYDYWGQGTLVTVSS"
–,–,–,–,–,–,–,–,–,–,–,–,–,–,0.00019,"IL6R89 (VHH, IL6R13 variant, tested as periplasmic extract) VHH: EVQLVESGGGLVQPGGSLRLSCAASGFTFDDYGMSWVRQAPGRGTEWVSAISWNGNNTYYTESMKGRFTISRDNAKNTLYLQMNSLRPEDTAVYYCVKGSTAIVGVPPTYPDEYDYWGQGTLVTVSS"
